Substitutions are numbered along the chain they refer to. Read-outs that look alike come from different tables or passages of the source.
Legend:
[1] = target: T1, human immunodeficiency virus-1 (HIV-1) envelope trimer (BG505 DS-SOSIP) (HIV-1 group M subtype A, isolate BG505, UniProt Q2N0S6, stabilised)
[2] = target: T1, human immunodeficiency virus-1 (HIV-1) …; assay: BLI; BG505 DS-SOSIP binding to immobilized VHH9 nanobody; kinetic fit; conditions: both partners purified
[3] = target: T2, Nb12 trimer (three Nb12 units with GGGGS(x3) linkers, fused to human IgG1 Fc) (nanomouse (mouse with camelid VHH genes)); assay: BLI; conditions: both partners purified
T2 construct: also called trivalent Nb12

[4] = target: T3, bivalent Nb30 (Nb30 fused to human IgG1 Fc) (nanomouse (mouse with camelid VHH genes)); assay: BLI; conditions: both partners purified
T3 construct: also called Nb30 (bivalent)
T3 sequence (heavy, as listed by the source): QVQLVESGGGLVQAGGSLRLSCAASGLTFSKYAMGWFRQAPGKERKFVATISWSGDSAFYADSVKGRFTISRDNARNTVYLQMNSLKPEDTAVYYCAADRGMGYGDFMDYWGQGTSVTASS

B1: VHH9-2 (VHH)
VHH: QVKLEESGGGSVQAGGSLRLSCTAPGFTSNSCGMAWYRQAPGKEREFVSSISTDGTTSYADSVKGRFTISKDKAKDTVYLQMNSLKPEDTAMYSCKTYGPYCYFDVWGAGTTVTVSS
- binding result [1]: binds

B2: VHH9-3 (VHH)
VHH: B1 VHH with S117A
- binding result [1]: binds

B3: VHH9-1 (nanobody from nanomouse immunized with BG505 DS-SOSIP) (VHH)
VHH: B1 VHH with Q1E, K3H, E5V, A24T, V113L
- binding result [2]: binds

B4: SARS-CoV RBD fused to the Fc region of human IgG1 (Fc fusion)
chain: not shown
- binding result [3]: binds
- binding result [4]: binds
